Here are results for two molecules from patent US20210030857A1 (NGM BIOPHARMACEUTICALS, published 2021).

Values joined by “and” are separate entries in the source; they are usually repeats but may differ in a detail not shown here. Equal entries are not always repeated.

The target in test [1] is T1, human beta klotho protein (soluble, used in Biacore) (human, UniProt Q86Z14 53-997, limits assumed).
T1 construct: also called HuKLB; huKLB
T1 sequence: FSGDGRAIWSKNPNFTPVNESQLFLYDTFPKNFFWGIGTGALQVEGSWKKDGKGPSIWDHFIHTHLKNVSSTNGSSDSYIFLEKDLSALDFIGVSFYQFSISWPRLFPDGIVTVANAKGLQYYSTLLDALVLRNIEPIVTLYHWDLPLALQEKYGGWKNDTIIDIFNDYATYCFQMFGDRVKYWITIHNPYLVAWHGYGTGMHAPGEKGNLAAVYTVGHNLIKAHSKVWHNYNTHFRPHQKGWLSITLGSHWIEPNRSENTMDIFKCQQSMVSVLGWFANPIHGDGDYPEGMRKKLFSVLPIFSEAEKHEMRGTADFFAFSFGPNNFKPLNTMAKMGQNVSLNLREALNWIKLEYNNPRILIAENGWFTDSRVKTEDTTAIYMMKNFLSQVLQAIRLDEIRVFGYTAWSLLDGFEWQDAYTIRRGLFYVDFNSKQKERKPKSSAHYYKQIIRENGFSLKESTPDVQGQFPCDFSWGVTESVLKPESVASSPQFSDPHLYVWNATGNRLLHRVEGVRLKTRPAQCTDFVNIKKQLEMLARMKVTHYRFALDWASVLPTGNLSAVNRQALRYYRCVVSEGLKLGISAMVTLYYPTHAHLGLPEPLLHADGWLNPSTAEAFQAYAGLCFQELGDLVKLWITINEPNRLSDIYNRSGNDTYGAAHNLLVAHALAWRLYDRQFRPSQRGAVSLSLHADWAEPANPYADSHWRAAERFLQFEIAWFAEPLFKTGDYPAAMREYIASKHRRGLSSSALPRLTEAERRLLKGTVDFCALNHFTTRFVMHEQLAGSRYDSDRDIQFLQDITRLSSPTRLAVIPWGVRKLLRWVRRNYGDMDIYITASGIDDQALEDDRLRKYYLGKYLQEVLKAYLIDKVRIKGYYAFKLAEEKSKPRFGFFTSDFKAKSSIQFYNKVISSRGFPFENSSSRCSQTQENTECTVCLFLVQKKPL
Briefly: Biacore SPR (as in Example 2).

The target of test [2] is T2, human beta klotho mutant R703A on HEK-293T cells (human, UniProt Q86Z14 1-1044).
T2 sequence: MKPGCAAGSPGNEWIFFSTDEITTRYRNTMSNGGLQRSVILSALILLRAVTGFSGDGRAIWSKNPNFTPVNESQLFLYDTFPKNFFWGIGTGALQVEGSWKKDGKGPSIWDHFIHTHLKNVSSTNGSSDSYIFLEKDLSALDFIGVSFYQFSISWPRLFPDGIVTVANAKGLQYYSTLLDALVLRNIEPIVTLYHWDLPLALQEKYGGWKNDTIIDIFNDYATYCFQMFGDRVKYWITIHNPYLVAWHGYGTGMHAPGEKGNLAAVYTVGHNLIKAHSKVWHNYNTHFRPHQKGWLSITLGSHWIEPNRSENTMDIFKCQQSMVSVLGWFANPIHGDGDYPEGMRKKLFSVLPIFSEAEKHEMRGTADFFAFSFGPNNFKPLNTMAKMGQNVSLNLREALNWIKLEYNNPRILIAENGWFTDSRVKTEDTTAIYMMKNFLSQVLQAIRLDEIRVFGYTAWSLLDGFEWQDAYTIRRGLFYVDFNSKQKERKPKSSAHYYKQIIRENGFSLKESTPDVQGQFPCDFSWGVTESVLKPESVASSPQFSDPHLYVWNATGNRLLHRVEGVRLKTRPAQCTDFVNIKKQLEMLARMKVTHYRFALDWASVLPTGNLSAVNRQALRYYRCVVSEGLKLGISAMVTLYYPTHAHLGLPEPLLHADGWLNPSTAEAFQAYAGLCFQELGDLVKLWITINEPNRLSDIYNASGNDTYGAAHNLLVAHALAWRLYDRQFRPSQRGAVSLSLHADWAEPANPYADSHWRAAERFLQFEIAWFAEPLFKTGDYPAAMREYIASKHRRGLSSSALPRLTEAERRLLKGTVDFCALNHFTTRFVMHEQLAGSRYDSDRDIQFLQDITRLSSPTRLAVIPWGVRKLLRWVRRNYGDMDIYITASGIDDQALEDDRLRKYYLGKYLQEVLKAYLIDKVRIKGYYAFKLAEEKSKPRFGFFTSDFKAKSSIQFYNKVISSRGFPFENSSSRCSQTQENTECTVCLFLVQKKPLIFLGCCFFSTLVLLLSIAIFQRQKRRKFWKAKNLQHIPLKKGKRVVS
Kind of test: shotgun alanine mutagenesis, FACS on HEK-293T cells, antibody 0.5 µg/ml. As for the experimental part: In order to further identify specific binding residues within human beta klotho KL2 domain, shotgun mutagenesis was used to separately mutate individual residues of the KL2 domain of human beta klotho to an alanine (e.g., residues F508A-L1008A). […] For example, screening of the beta klotho mutant proteins was conducted at a concentration of 0.5 μg/ml for the humanized 5H23 antibody, 1.0 μg/ml for the Fab fragment, and 2.0 μg/ml for a positive control polyclonal anti-beta klotho antibodies.
The resulting mapping identified three specific binding residues, H657, Y701 and R703, which were negative for binding by the humanized 5H23 antibody, but were positive for the control polyclonal anti-beta klotho antibodies. These residues represented amino acids whose side changes made the highest energetic contributions to the antibody-epitope interation as shown in Table 31. The locations of the three identified residues were modeled by showing them (dark spheres) at the equivalent positions on human cytosolic beta-glucosidase (PDB ID #2JFE; Tribolo et al., J. Mol. Biol. 370, 964-975 (2007)), identified by BLAST alignment of the two proteins as shown in FIG. 6.

The target in test [3] is human beta klotho / human FGFR1c receptor complex on cells (human, UniProt Q86Z14 1-1044; P11362 22-822). Kind of test: cell-based or functional assay.
human beta klotho / human FGFR1c receptor complex on cells, sequence (P11362 22-822 limits assumed, one chain of several): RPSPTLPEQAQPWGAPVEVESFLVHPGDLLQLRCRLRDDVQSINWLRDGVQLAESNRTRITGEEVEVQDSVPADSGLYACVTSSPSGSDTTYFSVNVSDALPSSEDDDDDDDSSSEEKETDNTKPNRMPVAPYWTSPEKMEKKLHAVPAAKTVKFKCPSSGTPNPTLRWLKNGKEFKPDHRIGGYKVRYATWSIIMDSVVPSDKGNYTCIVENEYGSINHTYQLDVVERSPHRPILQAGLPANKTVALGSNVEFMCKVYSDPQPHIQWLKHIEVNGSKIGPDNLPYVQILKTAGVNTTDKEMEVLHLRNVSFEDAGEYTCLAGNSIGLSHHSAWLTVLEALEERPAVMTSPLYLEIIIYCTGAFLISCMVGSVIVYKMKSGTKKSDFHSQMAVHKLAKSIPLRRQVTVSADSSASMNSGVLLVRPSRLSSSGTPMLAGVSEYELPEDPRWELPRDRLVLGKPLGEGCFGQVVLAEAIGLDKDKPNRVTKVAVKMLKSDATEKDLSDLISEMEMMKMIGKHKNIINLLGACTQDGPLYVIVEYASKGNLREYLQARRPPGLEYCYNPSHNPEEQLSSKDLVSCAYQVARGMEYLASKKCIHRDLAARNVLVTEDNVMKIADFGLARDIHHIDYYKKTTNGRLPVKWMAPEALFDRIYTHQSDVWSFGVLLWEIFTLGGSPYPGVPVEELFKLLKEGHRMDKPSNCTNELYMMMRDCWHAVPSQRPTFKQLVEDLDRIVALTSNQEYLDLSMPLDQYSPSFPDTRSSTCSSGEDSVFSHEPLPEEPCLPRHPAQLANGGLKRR

B1: humanized 5H23 antibody (VH SEQ ID NO: 271 and VL SEQ ID NO: 276) (antibody, V domains shown)
VH: QVQLQQSGAEVKKPGASVKVSCKASGYTFTSYDINWVRQAPGQGLEWIGWIYPGDGSTKYNEKFKGKATITRDTSASTAYMELSSLRSEDTAVYFCARSDYYGSRSFAYWGQGTLVTVSS
VL: DIVMTQSPDSLAVSLGERATINCRASKSVSTSGYVYMHWYQQKPGQPPKLLIYLASYLESGVPDRFSGSGSGTDFTLTISSVQAEDVAVYYCQHSRDLTFPFGGGTKLEIK
notes: also called h5H23; h5H23 (Prep 1)
Broadly, the Kd is the equilibrium constant for the complex coming apart. A low value points to a tighter complex. For B1, the equilibrium dissociation constant (Kd) in test [1] was 0.64 nM and 0.58 nM. The “Binding Reactivity (% WT)” value in test [2] is 1.64 % WT.

B2: antibody 5H23 (antibody, V domains shown)
VH: QVQLQQSGPELVKPGALVKISCKASGYTFTSYDINWVKQRPGQGLEWIGWIYPGDGSTKYNEKFKGKATLTADKSSRTAYMQLSSLTSENSAVYFCARSDYYGSRSFAYWGQGTLVTVSA
VL: DIVLTQSPASLAVSLGQRATISCRASKSVSTSGYVYMHWNQQKPGQPPKLLIYLASYLESGVPARFSGSGSGTDFTLNIHPVEEEDAAIYYCQHSRDLTFPFGGGTKLEIK
notes: Murine monoclonal antibody from hybridoma; also called 5H23-Alexa647 (labelled form)
B2: in test [3], the EC50-adipocyte was found to be 3.4 nM; the EC50 reporter assay is 0.27 nM and 0.51 nM.
